Holding throughout (experiment): FP, FITC-Ahx peptide
One assay addresses T1, OTULIN_PIM (Homo sapiens (Human), UniProt Q96BN8).
T1 chain: AEHEEDMYRAADEIEKEKE

The target of another assay is T2, p97_PIM (Homo sapiens (Human), UniProt P55072).
T2 chain: TEDNDDDLYG

Another assay addresses T3, SPATA2_PIM (Homo sapiens (Human), UniProt Q9UM82).
T3 chain: DVDLYTDSEPR

In general, Kd refers to the constant that tells how readily two partners part at equilibrium.

B1: SPATA2_PUB (protein)
chain: MDTKFKDDLFRKYVQFHESKVDTTTSRQRPGSDECLRVAASTLLSLHKVDPFYRFRLIQFYEVVESSLRSLSSSSLRALHGAFSMLETVGINLFLYPWKKEFRSIKTYTGPFVYYVKSTLLEEDIRAILSCMGYTPELGTAYKLRELVETLQVKMVSFELFLAKVECEQMLEIHSQVKDKGYSELDIVSERKSSAEDVRGCSDALRRRAEGRE
In the case of B1, the Kd with OTULIN_PIM, with p97_PIM and with SPATA2_PIM was > 100 µM each time.

B2: UBXN6_PUB (protein)
chain: STDPVAASIMKIYTFNKDQDRVKLGVDTIAKYLDNIHLHPEEEKYRKIKLQNKVFQERINCLEGTHEFFEAIGFQKVLLPAQDQEDPEEFYVLSETTLAQPQSLERHKEQLLAAE
Take B2: the figures for the Kd with p97_PIM and in the assay with SPATA2_PIM were 27.1 µM and > 100 µM, respectively.

B3: PNGase_PUB (protein)
chain: GSASPAVAELCQNTPETFLEASKLLLTYADNILRNPNDEKYRSIRIGNTAFSTRLLPVRGAVECLFEMGFEEGETHLIFPKKASVEQLQKIRDLIAIER
On to B3, for which the Kd in the assay with p97_PIM was 2.1 µM; in the assay with SPATA2_PIM, > 100 µM.

B4: HOIP_PUB (protein)
chain: MPGEEEERAFLVAREELASALRRDSGQAFSLEQLRPLLASSLPLAARYLQLDAARLVRCNAHGEPRNYLNTLSTALNILEKYGRNLLSPQRPRYWRGVKFNNPVFRSTVDAVQGGRDVLRLYGYTEEQPDGLSFPEGQEEPDEHQVATVTLEVLLLRTELSLLLQNTHPRQQALEQLLEDKVED
Turning to B4, the figures for the Kd in the assay with p97_PIM and in the assay with SPATA2_PIM were 10.2 µM and 0.36 µM, respectively.

These data come from article PMC5031558 (2016).
